According to publication doi:10.1101/2025.04.04.647159:

Target: Candidatus Liberibacter asiaticus pyrophosphate-fructose-6-phosphate 1-phosphotransferase (Candidatus Liberibacter asiaticus)
Assay: SEC

Work on “Candidatus Liberibacter asiaticus pyrophosphate-fructose-6-phosphate 1-phosphotransferase (enzyme)” yielded a stoichiometry N of 4.
